Source: PMC4323994
Where no end group is shown, it is not given here.

How the values were obtained:
Test in all cases: ELISA
[1] = molecular target: HLA-DR molecule, DRB1*0101 (human)
[2] = molecular target: HLA-DR molecule, DRB1*1501 (human)
[3] = molecular target: HLA-DR molecule, DRB1*0701 (human)

| Binder | IC50 [1] [nM] | IC50 [2] [nM] | IC50 [3] [nM] |
| --- | --- | --- | --- |
| GKQLYNVEATSYALL (also: amino and carboxyl ends blocked) [C3d_(223–237) wild type peptide (sequence overlapping the P28 peptide segment and C3d_(223–246))] | 365 |  |  |
| QATFMVFQALAQYQKDAP (also: amino and carboxyl ends blocked) [C3d_(269–286)] | 5630 | > 100000 | 2450 |
| GKQLYNVEATSYALLALLQLKDFD (also: amino and carboxyl ends blocked) [C3d_(223–246)] | < 2000 | 85100 | < 2000 |
